Data set [1] deals with ALDHTt, aldehyde dehydrogenase from Thermus thermophilus (Thermus thermophilus). Nature of the data set: SEC; HiLoad 16/60 Superdex 200 pg, 50 mM Tris-HCl pH 7.5, 5 mM β-mercaptoethanol, 150 mM NaCl, flow rate 1 mL/min; last step of the purification; no calibration told.
Substrate in data set [2]: CCCCCC=O
As to the kind of experiment: purified protein. Conditions: 2 mM NAD+, 10 mM potassium phosphate pH 8, 50 °C.

Substrate in data set [3]: NC(=O)c1ccc[n+]([C@@H]2O[C@H](COP(=O)(O)OP(=O)(O)OC[C@H]3O[C@@H](n4cnc5c(N)ncnc54)[C@H](O)[C@@H]3O)[C@@H](O)[C@H]2O)c1
Nature of the data set: purified protein. Format: biochemical, Thermus thermophilus. As to conditions: 2 mM hexanal, 10 mM potassium phosphate pH 8, 50 °C, varied: cofactor.

Substrate in data set [4]: O=Cc1ccc(C=O)cc1
As to the kind of experiment: purified protein. Format: biochemical, Thermus thermophilus. Conditions: 2 mM NAD+, 10 mM potassium phosphate pH 8, 50 °C.

Substrate in data set [5]: O=Cc1ccccc1
As to the kind of experiment: purified protein. It counts as biochemical, Thermus thermophilus. As to conditions: 2 mM NAD+, 10 mM potassium phosphate pH 8, 50 °C.

A word on the stoichiometry N: it is a count of units in the complex or per binding partner. In general, Km refers to the concentration of substrate that gives half-maximal velocity. Broadly, the Vmax is the rate approached at saturating substrate. A word on the kcat: it is the maximal rate divided by the concentration of active sites.

The molecule “ALDHTt, aldehyde dehydrogenase from Thermus thermophilus (enzyme)” gave a stoichiometry N in data set [1] of 4.

B1: ALDHTt (Thermus thermophilus HB27) (protein)
chain: MRKAAGKYGNTLEFGHLVGGEEVLEGPLLERRNPSDREDVVARFPEADKDLVRKAALKAREAFAEWSRTPAPIRGQVLFNLVKILEREKPTLTRLMVREVGKTPKEAAGDVQEAIDTALFFASEGRRLYGQTVPSEMRDKELFTFRRPLGVVGIITAGNFPIAVPSWKLIPAVLTGNTVVWKPSEDAPTLSFVFAKLFEEAGLPPGVLNVVFGGGKGSTGQWMVELMDEGLFQKFAFTGSTQVGRWIGEVAGRNLIRPTLELGGKNPLVVMRDADLDLAVEGAWWSAFATGGQRCTSAGNILVDAPIYEEFKRRFLERVEATLVGNPLLHPEVTYGPFINERFFARWQEHYRVGEAEGARLLFGRGRITRENPYPRFLGDPEAGLYGWPTVWEVRPGTRLFTEEVFGPTINLVKVDGIEEAIAVANSTPYGLSSAIYTNHRHWAYLFKVGIRAGMTSINNATVGAEAHLPFGGVKASGNGGRESGIWVLEEYTYWHAVNEEYSGRLQLAQMDTGYVSPKAPTPWGEVLGL
notes: full-length, his-tagged (pET-22b(+)-ALDHTt), E. coli BL21(DE3); homotetramer with C-terminal tail
With B1, the Michaelis constant (Km) stood at 990 ± 240 µM in data set [2], 9.2 µM in data set [3], 380 ± 110 µM in data set [4] and 1520 ± 510 µM in data set [5]. Moreover, the maximal velocity (Vmax) in data set [2] was determined as 0.027 µmol/min; in data set [4], 0.047 µmol/min; in data set [5], 0.0057 µmol/min. The kcat came to 5.71 s⁻¹ in data set [2], 12.1 ± 2.5 s⁻¹ in data set [4] and 1.46 ± 0.29 s⁻¹ in data set [5].

Source of the values: article PMC8699947, “Study of ALDH from Thermus thermophilus—Expression, Purification and Characterisation of the Non-Substrate Specific, Thermophilic Enzyme Displaying Both Dehydrogenase and Esterase Activity” (Cells, 2021).
